The source of these data is US8173604B2, “Inhibition of Skp2-cyclin a interaction” (Albert Einstein College of Medicine of Yeshiva University, priority 2006, dated 2012).

For assay [1], the target named is T1, p27-cyclin A interaction (Homo sapiens, UniProt P20248).
T1 construct: expressed in transfected cells; host or cells: 293T (cyclin A/Cdk2)
As to the kind of experiment: GST pull-down, blocking of p27-cyclin A interaction. It counts as binding. Particulars: GST-p27, myc-cyclin A/Cdk2 transfected 293T cell extracts. Here is the method: (§1) GST pull down, p27 ubiquitylation assay, and cyclin A kinase assay. GST fusion proteins were purified on GSH-beads (Amersham), which were then incubated with transfected cell extracts for 1 hour in 4° C. with rocking. The beads were washed three times with lysis buffer (25 mM Hepes pH 7.6, 100 mM KCl, 0.1 mM EDTA, 10 mM MgCl2, 0.1% NP-40, 10% glycerol, 1 mM DTT) before analysis by SDS-PAGE and Western blotting.
Skp2-cyclin A interaction and p27-cyclin A interaction can be blocked by distinct peptides. An important aspect of the RxL-1-IP interaction is that it can be blocked by a short RxL peptide (Adams et al., 1996). If the Skp2-cyclin A/Cdk2 interaction and the p27-cyclin A/Cdk2 interaction are mediated by different sequences on both sides of the interaction, as shown above, it can be predicted that the RxL peptide should not block Skp2-cyclin A interaction. […] Peptide concentrations required for their respective blocking activities were similar for RxL and 4060 peptides.
Skp2 competes with p27/p21, but not E2F1, for binding to cyclin A. Whether the apparently distinct Skp2-cyclin A interaction and p27-cyclin A interaction are competitive against each other was next evaluated. […] Whether the competition between Skp2 and p27/p21 for cyclin A binding could be observed in vivo with endogenous proteins under physiological conditions was next determined. […]

The target of assay [2] is T2, cyclin A/Cdk2 (Homo sapiens, UniProt P20248+P24941).
T2 construct: made in house; host or cells: insect cells (baculovirus)
As to the kind of experiment: In vitro cyclin A/Cdk2 kinase assay with purified proteins (GST-Rb-C substrate). It is filed as biochemical. The following applies: 80 nM protein added to p27-containing kinase reaction. Here is the method:
Cyclin A/Cdk2 kinase assays were performed as described previously (Ji et al., 2004). Both immuno-purified myc-cyclin A/Cdk2 on beads and GST-purified and eluted GST-cyclin A/Cdk2 (baculovirus vectors for GST-cyclin A and Cdk2 were provided by Brian Dynlacht) were used. The amounts of purified proteins were determined by comparing them with known amounts of standard proteins in Coomassie blue stained gels. Phosphorylation of GST-Rb-C was quantified with the ImageQuant software. The Ki of various proteins was determined by non-linear least squares analysis. […] Actual amounts of proteins in 7.5×10^4 HeLa cells were then determined (for example, the amounts of p27, Skp2, and cyclin A in 7.5×10^4 HeLa cells were determined to be about 0.1, 0.2, and 0.1 pmoles, respectively, at 14 hours post-replating; and about 0.01, 0.1, and 1.0 pmoles, respectively, at 19 hours post-replating).
For kinase reactions, insect cell-produced and purified GST-cyclin A/Cdk2 was used at a concentration of ˜3 nM, which was the lowest concentration that yielded readily detectible phosphorylation of GST-Rb-C here. […] Phosphorylation of Rb-C was measured and plotted, and the Ki of these various proteins were determined by non-linear least squares analysis (FIG. 7F). […]
It was then determined whether the 4060 peptide could prevent Skp2N from protecting cyclin A/Cdk2 from inhibition by p27. […]

In assay [3] the target is T3, GST-p21 binding to cyclin A/Cdk2 (Homo sapiens, UniProt P20248).
T3 construct: expressed in transfected cells; host or cells: 293T (cyclin A/Cdk2); The GST-p21 plasmid was a gift and the fusion was purified on GSH beads
In words: GST pull-down, competition with GST-p21 for binding to cyclin A/Cdk2. Particulars: increasing amounts of Skp2N. The procedure:
as §1
Skp2 competes with p27/p21, but not E2F1, for binding to cyclin A. Whether the apparently distinct Skp2-cyclin A interaction and p27-cyclin A interaction are competitive against each other was next evaluated. […] Skp2N also competed with GST-p21 for binding to cyclin A/Cdk2 (FIG. 6A right). Whether the competition between Skp2 and p27/p21 for cyclin A binding could be observed in vivo with endogenous proteins under physiological conditions was next determined. Since abundant amounts of cyclin A are already bound by Skp2 and very little is bound by p27 or p21 in various cell lines (unpublished results), this issue was addressed from the other direction of competition by testing whether p27/p21 could compete Skp2 away from cyclin A. For this purpose, we treated U2OS cells with actinomycin D to activate p53, which led to a significant increase in p21 protein levels.

Assay [4] deals with T4, E2F1-cyclin A binding (Homo sapiens, UniProt P20248).
T4 construct: expressed in transfected cells; host or cells: 293T (cyclin A/Cdk2); The GST-E2F1 plasmid was a gift and the fusion was purified on GSH beads
As to the kind of experiment: GST pull-down, competition for E2F1-cyclin A binding. The procedure:
as §1
Whether Skp2 competes with another RxL protein, E2F1, for cyclin A binding (Krek et al., 1994) was next determined.

B1: Skp2N: Skp2 N-terminus (N terminal 100 residues), GST cleaved (protein)
chain: MHVFKTPGPADAMHRKHLQEIPDLSSNVATSFTWGWDSSKTSELLSGMGVSALEKEEPDSENIPQELLSNLGHPESPPRKRLKSKGSDKDFVIVRRPKLN
modifications: left off: a dimerising Fc or GST
notes: Skp2 N-terminus (N terminal 100 residues), GST cleaved
B1: in assay [1], the “Blocking of p27-cyclin A interaction” value is “progressively diminished”. Further, the “Protection of cyclin A/Cdk2 from inhibition by p27” value in assay [2] is on record as “completely reversed”. In addition, in assay [3], the “Competition with GST-p21 for binding to cyclin A/Cdk2” value is given as “competed”. The “Effect on E2F1-cyclin A binding” value in assay [4] is given as “did not affect”.
